{"source": "paper PMC8481289", "about": "(2021)", "key": {"UBA5 Y372A": {"molecular_target": "UBA5 Y372A (human, UniProt Q9GZZ9 1-404, Y372A)", "sequence (Q9GZZ9 whole entry Y372A)": "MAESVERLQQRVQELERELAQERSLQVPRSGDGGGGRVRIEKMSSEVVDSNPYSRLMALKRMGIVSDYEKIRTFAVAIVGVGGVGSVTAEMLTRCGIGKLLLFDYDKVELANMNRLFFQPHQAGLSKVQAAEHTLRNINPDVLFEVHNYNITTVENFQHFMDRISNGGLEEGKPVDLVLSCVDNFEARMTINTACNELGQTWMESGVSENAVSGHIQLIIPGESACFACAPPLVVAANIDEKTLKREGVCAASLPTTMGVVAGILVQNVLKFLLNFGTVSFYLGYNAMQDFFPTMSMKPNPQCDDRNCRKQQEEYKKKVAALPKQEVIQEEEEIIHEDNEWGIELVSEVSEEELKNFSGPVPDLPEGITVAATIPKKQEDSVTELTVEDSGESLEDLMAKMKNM", "test": "ITC"}, "UBA5 333–404": {"molecular_target": "UBA5 333–404 (human, UniProt Q9GZZ9 333-404)", "sequence (Q9GZZ9 333-404)": "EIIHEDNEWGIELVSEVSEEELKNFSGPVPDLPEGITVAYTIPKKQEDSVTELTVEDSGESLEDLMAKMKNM", "test": "ITC"}}, "data": [{"binder": "UFC1 (WT) (enzyme) MADEATRRVVSEIPVLKTNAGPRDRELWVQRLKEEYQSLIRYVENNKNADNDWFRLESNKEGTRWFGKCWYIHDLLKYEFDIEFDIPITYPTTAPEIAVPELDGKTAKMYRGGKICLTDHFKPLWARNVPKFGLAHLMALGLGPWLAVEIPDLIQKGVIQHKEKCNQ", "values": [{"measurement": "Kd", "setting": "UBA5 Y372A", "value": 1900, "unit": "nM"}, {"measurement": "Kd", "setting": "UBA5 333–404", "value": 2500, "unit": "nM"}]}]}
